Reference: patent US20240115500A1, “POLYMERIC MICELLE COMPLEXES OF MRNA OR ZWITTERIONIC AGENTS, AND FORMULATIONS AND USES THEREOF” (Aravasc Inc., priority 2020, published 2024)

B1: interferon gamma: interferon protein tested for complexation with PBC (protein, UniProt P01579 24-161, looked up)
Interferon gamma: QDPYVKEAENLKKYFNAGHSDVADNGTLFLGILKNWKEESDRKIMQSQIVSFYFKLFKNFKDDQSIQKSVETIKEDMNVKFFNSNKKKRDDFEKLTNYSVTDLNVQRKAIHELIQVMAELSPAAKTGKRKRSQMLFRG

Assay: Agarose gel electrophoresis of protein + PBC formulations at defined w/w ratios (Example 2)
[1] = polymer:protein ratio 15:1, FIG. 2A-2D

Protocol: Unless otherwise indicated, the complexation was conducted at room temperature by incubating the PBC with the protein for 10-20 minutes on a microcentrifuge. A formulation of PBC alone was prepared along with the protein and PBC complexes.
Formulation were prepared as described above and analyzed by agarose gel electrophoresis. A 2% agarose gel was prepared and 20 μl of each formulation was loaded at the center of the gel. The gel was run for 30 minutes at 75V.

Molecule	complexation with the polymer (agarose gel) [1]	complexation with the polymer (agarose gel) (polymer:protein ratio 30:1, FIG. 2A/2B)	complexation with the polymer (agarose gel) (polymer:protein ratio 18:1, FIG. 2D)
Semaglutide	significantly complex	significantly complex	–
interferon alpha	–	–	significantly complex
B1	significantly complex	–	–
